# Assay: In-vitro surface properties of lipoprotein-based artificial surfactant, pulsating bubble instrument (Example 4)
# Assay type: physicochemical
# Details: phospholipid 10 mg/ml, 37° C., compared with native lipoprotein
# Description: To this mixture surfactant lipoprotein dissolved in chloroform/methanol 1:2 (v/v) was added, giving a lipoprotein to phospholipid ratio of 1:50. The solvents were evaporated to dryness and the different surfactant preparations (phospholipids, phospholipids+lipoprotein fraction) were suspended in saline giving a phospholipid concentration of 10 or 80 mg/ml.
# The surface properties of the lipoprotein-based artificial surfactant were analyzed with a pulsating bubble instrument (Surfactometer International, Toronto, Canada) (30). The surfactant preparations were suspended at a phospholipid concentration of 10 mg/ml, and the pressure gradient across the bubble wall was recorded at 37° C. during 50% cyclic surface compression at the rate of 40/min. Surface tension was assessed at maximal and minimal bubble sizes during the 5th cycle and after 1 and 5 min of pulsation.
# The tracings therein represent pressure gradients across the bubble wall; max and min indicate maximal (radius 0.55 mm) and minimal (radius 0.40 mm) bubble size during pulsation at a rate of 40/min. A pressure gradient close to zero at minimal bubble size corresponds to nearly zero surface tension.
substance,measurement,value
"lipopeptide: hexapeptide H2 N-Ile-Pro-Cys-Cys-Pro-Val-COOH conjugated with palmitoyl-chloride (thioester lipopeptide) (H-IPCCPV-OH; also: palmitoyl thioester, Cys not given here)",performance in the procedure of Example 4 (surface properties),performs similarly as the native lipoprotein

# Source: patent US5455227A, “Biologically active lipoprotein and its use” (KabiGen AB, priority 1988, dated 1995)
